For one assay, the target named is human IL-21 receptor (human, UniProt Q9HBE5 20-538). As to the kind of experiment: BLI. A general note: In BLI a coated tip is dipped into the sample, and binding shifts an interference pattern.
Another assay addresses murine IL-21R (murine, UniProt Q9JHX3 20-529). As to the kind of experiment: BLI.
Assay [1] has as its target T1, human common cytokine receptor γ chain (human, UniProt P31785 23-369).
T1 chain: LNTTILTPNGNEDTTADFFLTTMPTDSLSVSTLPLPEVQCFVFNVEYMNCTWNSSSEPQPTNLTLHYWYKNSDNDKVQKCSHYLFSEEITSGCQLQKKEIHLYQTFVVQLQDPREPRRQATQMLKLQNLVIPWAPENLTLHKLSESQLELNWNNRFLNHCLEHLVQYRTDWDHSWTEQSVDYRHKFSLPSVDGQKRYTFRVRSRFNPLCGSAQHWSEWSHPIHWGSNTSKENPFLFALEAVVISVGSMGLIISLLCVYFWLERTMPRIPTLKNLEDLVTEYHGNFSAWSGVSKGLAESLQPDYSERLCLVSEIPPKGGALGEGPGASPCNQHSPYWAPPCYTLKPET
As to the kind of experiment: BLI; in presence of hIL-21R (hIL-21R/hγc).

The next assay concerns the target T2, murine γc (murine, UniProt P34902 23-369).
T2 chain: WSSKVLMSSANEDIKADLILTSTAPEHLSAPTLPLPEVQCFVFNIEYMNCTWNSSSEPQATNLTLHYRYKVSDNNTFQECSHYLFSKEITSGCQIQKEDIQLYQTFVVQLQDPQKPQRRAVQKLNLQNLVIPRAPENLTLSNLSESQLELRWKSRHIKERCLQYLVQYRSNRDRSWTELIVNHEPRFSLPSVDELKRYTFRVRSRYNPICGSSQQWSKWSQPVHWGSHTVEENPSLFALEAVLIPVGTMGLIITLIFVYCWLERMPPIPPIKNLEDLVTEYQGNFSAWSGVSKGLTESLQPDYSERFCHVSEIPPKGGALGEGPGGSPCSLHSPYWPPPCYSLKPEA
The experiment in a line: BLI; in presence of mIL-21R (mIL-21R/mγc).

Chain of human IL-21 receptor (Q9HBE5 20-538): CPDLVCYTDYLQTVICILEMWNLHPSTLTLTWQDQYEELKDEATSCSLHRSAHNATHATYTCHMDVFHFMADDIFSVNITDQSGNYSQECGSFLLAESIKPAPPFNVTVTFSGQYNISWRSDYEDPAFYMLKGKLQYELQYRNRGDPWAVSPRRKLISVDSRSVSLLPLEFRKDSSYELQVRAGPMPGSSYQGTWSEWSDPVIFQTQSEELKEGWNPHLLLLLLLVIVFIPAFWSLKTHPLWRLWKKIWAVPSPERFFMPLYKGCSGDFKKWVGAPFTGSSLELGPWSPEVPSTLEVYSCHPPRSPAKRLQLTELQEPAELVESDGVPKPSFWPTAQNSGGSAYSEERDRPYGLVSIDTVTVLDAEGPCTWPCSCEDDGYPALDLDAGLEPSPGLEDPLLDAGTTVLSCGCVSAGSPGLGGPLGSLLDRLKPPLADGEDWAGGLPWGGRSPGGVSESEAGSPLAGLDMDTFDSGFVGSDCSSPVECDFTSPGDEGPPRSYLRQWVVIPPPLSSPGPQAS

B1: 21h10 (designed binder)
chain: DEEELKEIMKEAAECARKELEKLDNTDEDTRWLKITLKKIVRMANRIVRMREREADSKRFEIRMRGLIDIADHVKREFASEDLKEVMERAKSAAQKALGRWL
A word on the Kd: it is the free concentration of one partner at which half of the binding sites on the other are occupied at equilibrium, for simple one-to-one binding. For the molecule B1, the Kd with human IL-21 receptor amounted to 0.0737 nM; in the assay with murine IL-21R it was 5.17 nM; in assay [1], 85.5 nM; with murine γc it was 93.3 nM.

The values above are taken from publication PMC12768534 (2025).
